# B1: OR4K15 (parent)
# chain: GUUAACGGUCAUAGGCCAUGGAAACUAGGAGCACCAUUUCGCUGCCAGUGAAGAAAUGAACAAAGAAAAUCUGGGCCAGGCAGGCAUCAAAAGAAAUAGUCUUGCGCUCAACCAGAAAGUCUGUAAUCAUUUUAAGGGUA
# Variants of: B1
# Experiment: self-cleavage, relative activity (ratio to wild type); higher = more cleavage; in vitro, sequencing; the parent is a self-cleaving ribozyme
row,Variant,self-cleavage
1,G14C U103C,1.13
2,G14A A51G,1.18
3,C16G A69G,1.02
4,G14A A95G,1.24
5,C16G A86G,0.51
6,G15C A68C,2.44
7,C16G U37C,1.55
8,C17U A91G,0.42
9,G14U A135C,1.41
10,G15C U39C,1.26
11,C17G U39A,1.07
12,C16G A78U,0.66
13,C16G A78G,0.55
14,C16G A54G,0.89
15,C17U C109A,0.2
16,G14A U72C,0.22
17,C16U A69U,0.66
18,C16U A69G,0.74
19,C17U U87C,0.7
20,C17U U87A,1.37
21,C17U A116G,0.47
22,C17U G74A,0.13
23,C16U U122C,1.91
24,G14C A18G,1.59

row,Variant,self-cleavage
1,C16U C32G,0.15
2,G15A A94G,1.73
3,G14C A82G,0.32
4,G14U A24G,1.23
5,C16A U127C,0.13
6,C17U A64G,0.65
7,C17U A89G,1.23
8,G14A A56G,1.1
9,C17U U38C,1.28
10,G14U U37C,1.24
11,C16U A111U,0.16
12,C16U A18U,1.52
13,G15A A54G,1.41
14,A18C,0.89
15,C17U A33G,1.07
16,C16U A117G,1.84
17,G14A A89G,0.65
18,A13U U124C,1.37
19,G14C A30G,1.66
20,C16U A90G,1.55
21,C17U A62G,0.91
22,C16U U43A,0.54
23,G15A U131C,0.87
24,C17U U37C,1

row,Variant,self-cleavage
1,G15C A94G,0.33
2,G14U A94G,1.84
3,C16G G83A,1.21
4,G15C A91U,0.88
5,C16U A82U,0.21
6,G15A A116G,0.52
7,G15C U43C,1.93
8,C16U U97C,1.23
9,G15A U70A,0.96
10,G14U C105U,0.07
11,G15A A114G,0.06
12,G14U A63G,1.14
13,A13U U72C,0.49
14,G14A A67G,1.66
15,C17A G73A,0.16
16,C16G A59U,1.17
17,G15A A56G,1.45
18,G14A U19C,1.44
19,C17A U43A,1.18
20,C17A A117G,1.53
21,G15A A111G,0.01
22,C16A U124A,0.4
23,C17U A22G,1.48
24,G14A A54U,1.55

row,Variant,self-cleavage
1,C16A A56G,0.41
2,G15A U139C,1.3
3,G14A A91G,1.67
4,C16U A95G,1.21
5,C17U A51G,0.85
6,G14A U122A,1.16
7,C16G U49C,0.92
8,G15U A62G,2.71
9,G14A A59G,1.27
10,C17U A67G,1.26
11,G14A A47G,0.81
12,C16U U70C,0.79
13,G14U A82U,0.13
14,G14A A36G,1.17
15,G14A A33G,0.87
16,C16U,1.25
17,C16G,0.85
18,C16A,1.69
19,C17U G83A,1.07
20,G14U A126G,1.1
21,G14A U70C,0.96
22,A13U U122A,1.5
23,A13U U122C,0.56
24,C16A A134G,0.96

row,Variant,self-cleavage
1,G15C A67G,1.63
2,C16A A89G,1.37
3,G14C A51G,1.01
4,G14A A55G,1.58
5,G14A A118G,0.59
6,C16U G80A,0.1
7,G15A C113U,0.03
8,G15A A47G,1.33
9,C17A U108C,0.02
10,C16G U127A,2.18
11,G15C A24G,0.88
12,G15U A68C,1.71
13,G14A A114U,0.01
14,G14A U127C,0.28
15,C17A G20A,1.56
16,G14C A118U,0.78
17,G15A A36U,1.01
18,C16U U132C,1.11
19,C16A A18G,1.18
20,G14A A18U,0.99
21,G14U A90G,1.34
22,C16A A126G,1.2
23,C16U A68G,1.42
24,G14A A22G,0.51

row,Variant,self-cleavage
1,C16U A27G,0.94
2,G14U A111G,0.05
3,G14A U130C,0.45
4,C16A A60G,0.51
5,C17G A54G,0.86
6,C16G A66G,1.14
7,A13U U87A,1.61
8,C17U A110U,1.55
9,G15A U102C,1.98
10,G15C U49C,1.78
11,G14U A118U,0.4
12,G14C A55G,1.34
13,G14A A129U,0.41
14,C16A G80U,0.12
15,C17U A27C,0.44
16,G14U A116U,0.11
17,G15A A92G,1.65
18,C16G A135G,0.74
19,A13U U102C,1.56
20,G14U G48A,1.52
21,G14A A117G,1.22
22,C16U A52G,0.37
23,G15U A126U,0.79
24,G14A U26A,1.2

row,Variant,self-cleavage
1,G15C A86U,1.92
2,G14A U43C,0.99
3,G15C A111U,0.11
4,C17U A117G,1.84
5,C16G A68U,0.89
6,C17U A69G,0.62
7,C16A A55G,0.37
8,G14A A92G,0.96
9,C17U A54G,1.02
10,C16U A129C,1.3
11,G15U A78G,0.14
12,A13U U130C,0.69
13,C17G G79A,0.18
14,C16U U102C,2.01
15,G14U A33U,1.38
16,G14U A66G,0.9
17,G14U A92G,1.2
18,G14C A59G,1.46
19,C16U A94G,0.94
20,G14A G106A,0.02
21,G14U A96U,1.13
22,G14U A22G,1.12
23,G15A A27G,1.23

# From the RNAGym collection of RNA variant scans (doi:10.7554/elife.90254)
